From IntAct's records for PubMed 27135603

B1: Inducible T-cell costimulator (Homo sapiens), Q9Y6W8 (parent)
chain: MKSGLWYFFLFCLRIKVLTGEINGSANYEMFIFHNGGVQILCKYPDIVQQFKMQLLKGGQILCDLTKTKGSGNTVSIKSLKFCHSQLSNNSVSFFLYNLDHSHANYYFCNLSIFDPPPFKVTLTGGYLHIYESQLCCQLKFWLPIGCAAFVVVCILGCILICWLTKKKYSSSVHDPNGEYMFMRAVNTAKKSRLTDVTL
partner: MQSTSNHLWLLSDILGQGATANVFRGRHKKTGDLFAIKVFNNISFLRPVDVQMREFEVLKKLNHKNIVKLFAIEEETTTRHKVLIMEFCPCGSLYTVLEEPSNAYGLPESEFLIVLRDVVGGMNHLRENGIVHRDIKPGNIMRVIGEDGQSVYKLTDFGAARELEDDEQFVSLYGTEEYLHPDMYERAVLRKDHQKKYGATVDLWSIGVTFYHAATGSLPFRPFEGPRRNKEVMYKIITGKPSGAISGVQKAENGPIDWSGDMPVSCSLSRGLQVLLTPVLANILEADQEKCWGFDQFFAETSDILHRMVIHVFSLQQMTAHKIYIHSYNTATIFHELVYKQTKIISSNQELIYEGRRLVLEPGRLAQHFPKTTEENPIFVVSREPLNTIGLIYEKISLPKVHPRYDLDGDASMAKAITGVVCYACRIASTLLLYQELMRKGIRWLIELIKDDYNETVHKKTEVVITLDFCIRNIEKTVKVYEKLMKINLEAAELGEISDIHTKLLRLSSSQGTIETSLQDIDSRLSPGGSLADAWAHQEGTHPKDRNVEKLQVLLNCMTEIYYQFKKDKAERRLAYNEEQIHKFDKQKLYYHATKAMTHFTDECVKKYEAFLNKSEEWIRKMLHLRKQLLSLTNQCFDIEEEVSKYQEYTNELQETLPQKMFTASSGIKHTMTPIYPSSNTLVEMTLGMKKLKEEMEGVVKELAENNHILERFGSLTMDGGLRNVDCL
B2: Inducible T-cell costimulator (Homo sapiens), Q9Y6W8 (parent)
chain: B1 chain
B3: TNF receptor-associated factor 2 (Homo sapiens), Q12933 (parent)
chain: MAAASVTPPGSLELLQPGFSKTLLGTKLEAKYLCSACRNVLRRPFQAQCGHRYCSFCLASILSSGPQNCAACVHEGIYEEGISILESSSAFPDNAARREVESLPAVCPSDGCTWKGTLKEYESCHEGRCPLMLTECPACKGLVRLGEKERHLEHECPERSLSCRHCRAPCCGADVKAHHEVCPKFPLTCDGCGKKKIPREKFQDHVKTCGKCRVPCRFHAIGCLETVEGEKQQEHEVQWLREHLAMLLSSVLEAKPLLGDQSHAGSELLQRCESLEKKTATFENIVCVLNREVERVAMTAEACSRQHRLDQDKIEALSSKVQQLERSIGLKDLAMADLEQKVLEMEASTYDGVFIWKISDFARKRQEAVAGRIPAIFSPAFYTSRYGYKMCLRIYLNGDGTGRGTHLSLFFVVMKGPNDALLRWPFNQKVTLMLLDQNNREHVIDAFRPDVTSSSFQRPVNDMNIASGCPLFCPVSKMEAKNSYVRDDAIFIKAIVDLTGL
partner: B1 partner
B4: TNF receptor-associated factor 3 (Homo sapiens), Q13114 (parent)
chain: MESSKKMDSPGALQTNPPLKLHTDRSAGTPVFVPEQGGYKEKFVKTVEDKYKCEKCHLVLCSPKQTECGHRFCESCMAALLSSSSPKCTACQESIVKDKVFKDNCCKREILALQIYCRNESRGCAEQLMLGHLLVHLKNDCHFEELPCVRPDCKEKVLRKDLRDHVEKACKYREATCSHCKSQVPMIALQKHEDTDCPCVVVSCPHKCSVQTLLRSELSAHLSECVNAPSTCSFKRYGCVFQGTNQQIKAHEASSAVQHVNLLKEWSNSLEKKVSLLQNESVEKNKSIQSLHNQICSFEIEIERQKEMLRNNESKILHLQRVIDSQAEKLKELDKEIRPFRQNWEEADSMKSSVESLQNRVTELESVDKSAGQVARNTGLLESQLSRHDQMLSVHDIRLADMDLRFQVLETASYNGVLIWKIRDYKRRKQEAVMGKTLSLYSQPFYTGYFGYKMCARVYLNGDGMGKGTHLSLFFVIMRGEYDALLPWPFKQKVTLMLMDQGSSRRHLGDAFKPDPNSSSFKKPTGEMNIASGCPVFVAQTVLENGTYIKDDTIFIKVIVDTSDLPDP
partner: B1 partner

Variants of: B1
Settings: with tbk1_human TBK1, Q9UHD2

Row | effect of a mutation on the interaction | Variant
1 | with no effect | MKSGLWYFFLFCLRIKVLTGEINGSANYEMFIFHNGGVQILCKYPDIVQQFKMQLLKGGQILCDLTKTKGSGNTVSIKSLKFCHSQLSNNSVSFFLYNLDHSHANYYFCNLSIFDPPPFKVTLTGGYLHIYESQLCCQLKFWLPIGCAAFVVVCILGCILICWLTKKKYSSSVHDPNGEFMFMRAVNTAKKSRLTDVTL

Variants of: B1
Settings: with tbk1_human TBK1, Q9UHD2
Remark: another data set of the same source

Row | effect of a mutation on the interaction | Variant
2 | decreasing interaction strength | MKSGLWYFFLFCLRIKVLTGEINGSANYEMFIFHNGGVQILCKYPDIVQQFKMQLLKGGQILCDLTKTKGSGNTVSIKSLKFCHSQLSNNSVSFFLYNLDHSHANYYFCNLSIFDPPPFKVTLTGGYLHIYESQLCCQLKFWLPIGCAAFVVVCILGCILICWLTKKKYAAAAAAAAAAYMFMRAVNTAKKSRLTDVTL

Variants of: B2
Settings: with p85a_human PIK3R1, P27986
p85a_human PIK3R1, P27986, sequence (P27986 whole entry): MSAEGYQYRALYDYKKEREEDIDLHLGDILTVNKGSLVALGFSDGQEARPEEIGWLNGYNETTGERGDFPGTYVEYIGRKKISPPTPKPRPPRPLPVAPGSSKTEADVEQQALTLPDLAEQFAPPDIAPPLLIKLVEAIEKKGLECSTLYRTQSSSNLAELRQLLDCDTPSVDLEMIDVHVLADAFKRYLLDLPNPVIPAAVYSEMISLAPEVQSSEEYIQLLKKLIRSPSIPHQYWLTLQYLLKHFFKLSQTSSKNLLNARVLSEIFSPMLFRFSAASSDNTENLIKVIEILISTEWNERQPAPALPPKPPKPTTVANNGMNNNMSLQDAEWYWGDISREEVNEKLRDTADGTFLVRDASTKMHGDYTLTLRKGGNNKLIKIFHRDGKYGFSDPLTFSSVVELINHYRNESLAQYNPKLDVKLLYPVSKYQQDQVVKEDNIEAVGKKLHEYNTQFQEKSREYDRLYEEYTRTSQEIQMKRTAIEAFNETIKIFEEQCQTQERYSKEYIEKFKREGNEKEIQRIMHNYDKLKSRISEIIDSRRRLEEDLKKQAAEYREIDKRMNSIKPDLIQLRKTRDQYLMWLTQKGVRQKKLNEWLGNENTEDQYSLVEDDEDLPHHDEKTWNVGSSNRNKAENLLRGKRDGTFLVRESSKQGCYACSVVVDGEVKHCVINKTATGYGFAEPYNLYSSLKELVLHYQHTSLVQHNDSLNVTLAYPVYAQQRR

Row | effect of a mutation on the interaction | Variant
3 | disrupting interaction strength | MKSGLWYFFLFCLRIKVLTGEINGSANYEMFIFHNGGVQILCKYPDIVQQFKMQLLKGGQILCDLTKTKGSGNTVSIKSLKFCHSQLSNNSVSFFLYNLDHSHANYYFCNLSIFDPPPFKVTLTGGYLHIYESQLCCQLKFWLPIGCAAFVVVCILGCILICWLTKKKYSSSVHDPNGEFMFMRAVNTAKKSRLTDVTL

Variants of: B2
Settings: with p85a_human PIK3R1, P27986
Remark: another data set of the same source

Row | effect of a mutation on the interaction | Variant
4 | with no effect | MKSGLWYFFLFCLRIKVLTGEINGSANYEMFIFHNGGVQILCKYPDIVQQFKMQLLKGGQILCDLTKTKGSGNTVSIKSLKFCHSQLSNNSVSFFLYNLDHSHANYYFCNLSIFDPPPFKVTLTGGYLHIYESQLCCQLKFWLPIGCAAFVVVCILGCILICWLTKKKYAAAAAAAAAAYMFMRAVNTAKKSRLTDVTL

Variants of: B3
Settings: with tbk1_human TBK1, Q9UHD2

Row | effect of a mutation on the interaction | Variant
5 | disrupting interaction strength | MAAASVTPPGSLELLQPGFSKTLLGTKLEAKYLCSACRNVLRRPFQAQCGHRYCSFCLASILSSGPQNCAACVHEGIYEEGISILESSSAFPDNAARREVESLPAVCPSDGCTWKGTLKEYESCHEGRCPLMLTECPACKGLVRLGEKERHLEHECPERSLSCRHCRAPCCGADVKAHHEVCPKFPLTCDGCGKKKIPREKFQDHVKTCGKCRVPCRFHAIGCLETVEGEKQQEHEVQWLREHLAMLLSSVLEAKPLLGDQSHAGSELLQRCESLEKKTATFENIVCVLNREVERVAMTAEACSRQHRLDQDKIEALSSKVQQLERSIGLKDLAMADLEQKVLEMEASTYDGVFIWKISDFARKRQEAVAGRIPAIFSPAFYTSRYGYKMCLRIYLNGDGTGRGTHLSLFFVVMKGPNDALLRWPFNQKVTLMLLDQNNREHVIDAFRPDVTAAAAAAAAAAMNIASGCPLFCPVSKMEAKNSYVRDDAIFIKAIVDLTGL [S453A;S454A;S455A;F456A;Q457A;R458A;P459A;V460A;N461A;D462A]

Variants of: B4
Settings: with tbk1_human TBK1, Q9UHD2

Row | effect of a mutation on the interaction | Variant
6 | decreasing interaction strength | MESSKKMDSPGALQTNPPLKLHTDRSAGTPVFVPEQGGYKEKFVKTVEDKYKCEKCHLVLCSPKQTECGHRFCESCMAALLSSSSPKCTACQESIVKDKVFKDNCCKREILALQIYCRNESRGCAEQLMLGHLLVHLKNDCHFEELPCVRPDCKEKVLRKDLRDHVEKACKYREATCSHCKSQVPMIALQKHEDTDCPCVVVSCPHKCSVQTLLRSELSAHLSECVNAPSTCSFKRYGCVFQGTNQQIKAHEASSAVQHVNLLKEWSNSLEKKVSLLQNESVEKNKSIQSLHNQICSFEIEIERQKEMLRNNESKILHLQRVIDSQAEKLKELDKEIRPFRQNWEEADSMKSSVESLQNRVTELESVDKSAGQVARNTGLLESQLSRHDQMLSVHDIRLADMDLRFQVLETASYNGVLIWKIRDYKRRKQEAVMGKTLSLYSQPFYTGYFGYKMCARVYLNGDGMGKGTHLSLFFVIMRGEYDALLPWPFKQKVTLMLMDQGSSRRHLGDAFKPDPNAAAAAAAAAAMNIASGCPVFVAQTVLENGTYIKDDTIFIKVIVDTSDLPDP [S518A;S519A;S520A;F521A;K522A;K523A;P524A;T525A;G526A;E527A]
